US9926369B2, “Methods for treating hepatocellular cancer by administering an anti-Ang-2 antibody” (Regeneron Pharmaceuticals, Inc., priority 2009, dated 2018)
pIC50, pKd: −log10 of the molar value.

How the values were obtained:
[1] = target: T1, hAng-1-WT binding to hTie-2-mFc (Homo sapiens, UniProt Q15389); assay: Biosensor SPR blocking of hAng-1-WT binding to hTie-2-mFc-ecto surface; assay type: biochemical; conditions: for Percent of Neg. Ctrl Binding (hAng-1 WT) / Specific Bound RU (hAng-1 WT): 10 nM hAng-1-WT
T1 sequence (Q15389 20-498 limits assumed): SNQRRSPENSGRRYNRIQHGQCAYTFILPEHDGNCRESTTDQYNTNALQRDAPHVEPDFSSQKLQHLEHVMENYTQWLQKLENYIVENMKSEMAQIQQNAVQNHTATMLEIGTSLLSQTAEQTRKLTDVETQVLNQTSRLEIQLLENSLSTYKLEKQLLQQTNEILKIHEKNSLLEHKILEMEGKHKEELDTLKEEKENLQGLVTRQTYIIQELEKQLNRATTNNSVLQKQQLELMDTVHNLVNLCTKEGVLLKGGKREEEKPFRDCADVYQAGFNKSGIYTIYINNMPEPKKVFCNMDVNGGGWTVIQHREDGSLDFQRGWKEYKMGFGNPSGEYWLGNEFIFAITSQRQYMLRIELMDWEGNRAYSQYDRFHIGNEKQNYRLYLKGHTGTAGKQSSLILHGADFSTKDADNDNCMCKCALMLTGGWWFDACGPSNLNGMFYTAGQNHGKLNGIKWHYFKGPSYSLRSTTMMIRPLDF
Description: In an effort to further assess the ability of selected anti-hAng-2 antibodies to block the binding of Ang-1 to Tie-2, a biosensor surface plasmon resonance experiment was conducted. In this experiment, a human Tie-2 full-length extracellular domain construct (hTie-2-mFc-ecto) was amine-coupled on a BIACORE™ chip to create a receptor coated surface. Selected anti-hAng-2 antibodies and control constructs, at 1 μM (100-fold excess over antigen), were premixed with 10 nM of hAng-1-WT, followed by 60 minutes incubation at 25° C. to allow antibody-antigen binding to reach equilibrium to form equilibrated solutions. The equilibrated solutions were injected over the receptor surfaces at 5 μL/min for 5 minutes at 25° C. Changes in resonance units (RU) due to the binding of the hAng-1-WT to hTie-2-mFc were determined. An irrelevant peptibody construct with no binding to hAng-1 was included in this experiment to establish the 0% blocking baseline, and a human Tie-2-mFc construct was used as a positive control for blocking. The amount of Ang-1 bound to Tie-2 following antibody preincubation, expressed as a percentage of the amount of Ang-1 bound to Tie-2 following negative control preincubation, is shown in Table 20. (A greater amount of Ang-1 binding to Tie-2 signifies a lower degree of antibody blocking).
The foregoing experiment was repeated using different amounts of Ang-2 blockers and controls. In particular, a human Tie-2 full-length extracellular domain construct (hTie-2-mFc-ecto) was amine-coupled on a BIACORE™ chip to create a receptor-coated surface. Selected anti-hAng-2 antibodies and control constructs (50 or 150 nM) were mixed with hAng-2-WT (25 nM) followed by 60 minutes incubation at 25° C. to allow antibody-antigen binding to reach equilibrium. The equilibrated solutions were injected over the receptor surfaces at 10 μL/min for 5 minutes at 25° C. To evaluate the ability of the selected anti-hAng-2 antibodies to block Ang-1-WT binding to hTie-2, a similar procedure was followed except the antibodies were tested at three concentrations (50, 100 or 1000 nM) and incubated with 10 nM of hAng-1-WT. Changes in resonance units (RU) due to the binding of the Ang-2-WT or hAng-1-WT to hTie-2-mFc were determined. An irrelevant antibody with no binding to either angiopoietin was included in these experiments to establish the 0% blocking baseline, and a human Tie-2-mFc construct was used as a positive control for blocking. Results are summarized in Tables 21 (hAng-1 applied to a hTie-2 surface) and 22 (hAng-2 applied to a hTie-2 surface).

hAng-2FD-mFc S-417-I = target: T2, hAng-2FD-mFc S-417-I (Homo sapiens, UniProt O15123, S417I); assay: Ang-2FD-mFc point mutant binding experiment (SPR), S-417-I; conditions: S-417-I mutant captured; antibody/peptibody at 100 nM; 25° C.
T2 construct: made in house
T2 sequence (O15123 with tags, fused parts or gaps S417I): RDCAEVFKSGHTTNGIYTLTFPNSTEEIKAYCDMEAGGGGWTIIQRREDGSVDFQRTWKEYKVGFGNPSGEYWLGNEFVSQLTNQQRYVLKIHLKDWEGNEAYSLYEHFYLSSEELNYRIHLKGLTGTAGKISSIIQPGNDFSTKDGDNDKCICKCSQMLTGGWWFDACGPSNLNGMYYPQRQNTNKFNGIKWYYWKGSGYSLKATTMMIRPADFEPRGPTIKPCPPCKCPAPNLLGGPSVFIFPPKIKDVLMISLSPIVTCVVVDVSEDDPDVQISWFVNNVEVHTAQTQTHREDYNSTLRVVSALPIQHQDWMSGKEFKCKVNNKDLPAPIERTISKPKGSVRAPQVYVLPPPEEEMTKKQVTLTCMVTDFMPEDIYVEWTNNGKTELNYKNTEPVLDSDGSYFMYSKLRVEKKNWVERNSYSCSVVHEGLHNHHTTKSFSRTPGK
Description: To further characterize binding between hAng2 and anti-hAng2 mAbs of the invention, seven variant hAng2-FD-mFc proteins were generated, each containing a single point mutation. Amino acids selected for mutation were based on the difference in sequence between hAng-2 and hAng-1 in the region that interacts with hTie-2 (FIG. 1). In particular, amino acids within the fibrinogen-like domain (FD) of Ang-2 which are believed to interact with Tie-2 based on crystal structure analysis, but which differ from the corresponding amino acid in Ang-1, were individually mutated to the corresponding hAng-1 residue. The results of this example indicate the amino acid residues of hAng-2 with which the Ang-2 preferential binding antibodies interact.
In this experiment, each of the seven hAng-2FD-mFc mutant proteins were captured (˜147-283 RU) on an anti-mouse-Fc surface created through direct chemical coupling to a BIACORE™ chip. Then each Ang-2 antibody (or peptibody, as the case may be) at 100 nM was injected over the captured mFc-tagged hAng-2FD protein surface at a flowrate of 50 μl/min for 180 sec, and the dissociation of variant hAng2-FD-mFc and antibody was monitored in real time for 20 min at 25° C.

[2] = target: biotin-hBA2 binding to hTie-2 (Homo sapiens, UniProt O15123); assay: ELISA blocking of biotinylated hBA2 binding to hTie-2-His; assay type: biochemical; conditions: antibodies cloned onto human IgG1; NB: no blocking observed at 5 nM concentration; read-out: Biotin - hBA2 IC50
Sequence of biotin-hBA2 binding to hTie-2 (O15123 with tags, fused parts or gaps): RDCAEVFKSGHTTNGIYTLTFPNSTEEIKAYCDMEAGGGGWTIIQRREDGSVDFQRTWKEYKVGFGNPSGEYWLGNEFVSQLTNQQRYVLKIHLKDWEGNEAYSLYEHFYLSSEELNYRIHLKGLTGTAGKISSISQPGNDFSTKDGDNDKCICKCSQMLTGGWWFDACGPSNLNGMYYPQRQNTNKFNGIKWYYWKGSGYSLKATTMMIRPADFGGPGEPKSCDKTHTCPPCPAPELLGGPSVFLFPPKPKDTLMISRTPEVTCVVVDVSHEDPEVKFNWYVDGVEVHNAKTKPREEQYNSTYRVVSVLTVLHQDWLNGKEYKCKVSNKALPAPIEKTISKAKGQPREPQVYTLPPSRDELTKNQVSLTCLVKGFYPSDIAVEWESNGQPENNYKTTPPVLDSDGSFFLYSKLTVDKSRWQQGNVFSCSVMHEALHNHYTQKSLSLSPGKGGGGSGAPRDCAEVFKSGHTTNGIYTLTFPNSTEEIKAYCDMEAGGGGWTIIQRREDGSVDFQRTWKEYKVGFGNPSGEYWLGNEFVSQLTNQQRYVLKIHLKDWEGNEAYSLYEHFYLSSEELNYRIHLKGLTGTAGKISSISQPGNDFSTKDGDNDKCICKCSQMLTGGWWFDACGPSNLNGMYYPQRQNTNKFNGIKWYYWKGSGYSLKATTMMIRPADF
Description: For this experiment, human Tie-2 conjugated to a histidine tag (hTie-2-His; SEQ ID NO:526) was used in a similar fashion to the hTie-2-mFc described above. Antibody concentrations from 5 nM were serially diluted three-fold. […] An average IC50 value for each antibody was calculated based on two separate experiments.

[3] = system: COLO 205 tumor vessel perfusion; assay: Tumor perfusion by contrast-enhanced micro-ultrasound, COLO 205 tumors; assay type: in vivo, mice; conditions: treated for 24 hrs
Description: To determine whether the combination of H1H685P+VEGF Trap has a greater effect on tumor vessel function than the single agents, a micro-ultrasound (VisualSonics' Vevo 770 imaging system) was used to assess changes in tumor perfusion. COLO 205 tumors were grown to ˜125 mm^3 and mice were then treated for 24 hrs with H1H685P, VEGF Trap or the combination of both agents. Following treatment, tumor vessel perfusion was determined based on contrast-enhanced micro-ultrasound 2D image acquisition and analysis of a “wash-in” curve, which represents the amount of contrast agent entering the tumor. Average (mean+/−standard deviation) tumor perfusion was calculated for each group. Percent decrease was calculated from comparison to the Fc control group.

[4] = 1 μM antibody premixed with 10 nM hAng-1-WT, 25° C.

H1H685P: human anti-Ang-2 antibody, HCVR/LCVR SEQ ID NOs 18/20; also referred to as mAb1 [Antibody H1H685P]
Blocking of binding of human Ang-1 to human Tie-2 (in words) [1]: do not significantly block
Percent of Neg. Ctrl Binding (hAng-1 WT) ([1]; 50 nM antibody or control): 95%
Specific Bound RU (hAng-1 WT) ([1]; 50 nM antibody or control): 299 RU
Percent of Neg. Ctrl Binding (hAng-1 WT) ([1]; 100 nM antibody or control): 95%
Specific Bound RU (hAng-1 WT) ([1]; 100 nM antibody or control): 291 RU
Percent of Negative Control Binding (hAng-1-WT to Tie-2) [1, 4]: 81%
RU (average), hAng-1-WT bound to hTie-2-mFc [1, 4]: 137 RU
Percent of Neg. Ctrl Binding (hAng-1 WT) ([1]; 1000 nM antibody or control): 105%
Specific Bound RU (hAng-1 WT) ([1]; 1000 nM antibody or control): 289 RU
pKd (hAng-2FD-mFc S-417-I): 10.52
RU (hAng-2FD-mFc S-417-I): 127.65 RU
pIC50 [2]: 10.70
Relative Tumor Perfusion ([3]; mean ± SD): 6.32 ± 2.81
% Decrease in Tumor Perfusion ([3]; vs Fc control): 22%
